Measured values as given in paper PMC9352680, “A comprehensive thermodynamic model for RNA binding by the Saccharomyces cerevisiae Pumilio protein PUF4”.
Changes are numbered by the printed parent chain. Numbers in names are those of the source.

T1: PUF4 RNA-binding domain (Saccharomyces cerevisiae, UniProt P25339 537-888)
T1 sequence: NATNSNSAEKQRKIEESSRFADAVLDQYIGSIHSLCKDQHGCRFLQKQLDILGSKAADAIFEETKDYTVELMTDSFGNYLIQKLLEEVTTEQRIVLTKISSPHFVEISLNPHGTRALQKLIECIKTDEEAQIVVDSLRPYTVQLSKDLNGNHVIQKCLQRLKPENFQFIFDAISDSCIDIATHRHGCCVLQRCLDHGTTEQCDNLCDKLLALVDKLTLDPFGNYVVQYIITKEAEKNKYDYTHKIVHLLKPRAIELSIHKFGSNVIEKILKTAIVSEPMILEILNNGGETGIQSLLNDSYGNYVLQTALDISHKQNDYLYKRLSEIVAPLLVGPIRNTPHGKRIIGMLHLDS

B1: Ic_S2_P3E.1_K3.1_C3.1_H3.1_A3.1_[A6G]_F3.1_T3.1 (ssRNA)
RNA: UUUGAUUAAUAUGAUAUCGUUCUUUCUUGUAUGUAUUCUUUCUCGAUAUCAUAUUAAUCUUU
B2: Ib_S2_P3E.1_K3.1_C3.1_H3.1_[A4C]_A3.1_[T5A]_F3.1_T3.1 (ssRNA)
RNA: B1 RNA with A31C, U32A, G33A
B3: Ib_S2_P3E.1_K3.1_C3.1_H3.1_[A4T]_A3.1_[T5A]_F3.1_T3.1 (ssRNA)
RNA: B1 RNA with A31U, U32A, G33A
B4: Ib_S2_P3E.1_K3.1_C3.1_H3.1_[A4G]_A3.1_[A6C]_F3.1_T3.1 (ssRNA)
RNA: B1 RNA with A31G, G33C
B5: Ib_S2_P3E.1_K3.1_C3.1_H3.1_[A4G]_A3.1_[A6T]_F3.1_T3.1 (ssRNA)
RNA: B1 RNA with A31G, G33U
B6: Ie_S4_P4E.1_K4.1_C4.1_H4.1_A4.1_F4.1_[+9TTC]_T4.1 (ssRNA)
RNA: UUUGACAACUGAUCGUUCUUUCUUGUAUAUUAUUCUUCUUUCUCGAUCAGUUGUCUUU
B7: Ie_S4_P5E.1_K5.1_C5.1_H5.1_[+4CC]_A5.1_F5.1_T5.1 (ssRNA)
RNA: B6 RNA with U28C, A29C, C35A
B8: Ie_S4_P5E.1_K5.1_C5.1_H5.1_[+1TC]_A5.1_F5.1_T5.1 (ssRNA)
RNA: B6 RNA with G25U, U26C, A27G, C35A
B9: Ie_S4_P5E.1_K5.1_C5.1_H5.1_[+3CT]_A5.1_F5.1_T5.1 (ssRNA)
RNA: B6 RNA with A27C, C35A
B10: Ie_S4_P5E.1_K5.1_C5.1_H5.1_[+4CT]_A5.1_F5.1_T5.1 (ssRNA)
RNA: B6 RNA with U28C, A29U, C35A
B11: Ie_S4_P5E.1_K5.1_C5.1_H5.1_[+3TT]_A5.1_F5.1_T5.1 (ssRNA)
RNA: B6 RNA with A27U, C35A
B12: Ie_S4_P4E.1_K4.1_C4.1_H4.1_A4.1_F4.1_[+9CTT]_T4.1 (ssRNA)
RNA: B6 RNA with U33C, C35U
B13: Ie_S4_P5E.1_K5.1_C5.1_H5.1_[+1TT]_A5.1_F5.1_T5.1 (ssRNA)
RNA: B6 RNA with G25U, A27G, C35A
B14: Ie_S4_P5E.1_K5.1_C5.1_H5.1_[+3TC]_A5.1_F5.1_T5.1 (ssRNA)
RNA: B6 RNA with A27U, U28C, C35A
B15: Ie_S4_P5E.1_K5.1_C5.1_H5.1_[+1CCCT]_A5.1_F5.1_T5.1 (ssRNA)
RNA: UUUGACAACUGAUCGUUCUUUCUUCCCUGUAUUAUUAUUCUUUCUCGAUCAGUUGUCUUU
B16: Ie_S4_P5E.1_K5.1_C5.1_H5.1_[+3TCTC]_A5.1_F5.1_T5.1 (ssRNA)
RNA: B15 RNA with C25G, C26U, C27U, U28C, G29U, U30C
B17: Ie_S4_P5E.1_K5.1_C5.1_H5.1_[+3TTCC]_A5.1_F5.1_T5.1 (ssRNA)
RNA: B15 RNA with C25G, C26U, C27U, G29C, U30C
B18: Ie_S4_P5E.1_K5.1_C5.1_H5.1_[+2TTCC]_A5.1_F5.1_T5.1 (ssRNA)
RNA: B15 RNA with C25G, C26U, C27U, U28C, G29C
B19: Ie_S4_P5E.1_K5.1_C5.1_H5.1_[+2CCTC]_A5.1_F5.1_T5.1 (ssRNA)
RNA: B15 RNA with C25G, G29C
B20: Ie_S4_P4E.1_K4.1_C4.1_H4.1_A4.1_F4.1_[+9CTCT]_T4.1 (ssRNA)
RNA: UUUGACAACUGAUCGUUCUUUCUUGUAUAUUACUCUUUCUUUCUCGAUCAGUUGUCUUU
B21: Ie_S4_P5E.1_K5.1_C5.1_H5.1_A5.1_[+5TTT]_F5.1_T5.1 (ssRNA)
RNA: B20 RNA with A29U, A32U, C33A, C35U, U36A
B22: Ie_S4_P5E.1_K5.1_C5.1_H5.1_[+3TTT]_A5.1_F5.1_T5.1 (ssRNA)
RNA: B20 RNA with A27U, A29U, U30A, A32U, C33A, C35U, U36A
B23: Ie_S4_P5E.1_K5.1_C5.1_H5.1_[+4CTC]_A5.1_F5.1_T5.1 (ssRNA)
RNA: B20 RNA with U28C, A29U, U30C, A32U, C33A, C35U, U36A
B24: Ie_S4_P5E.1_K5.1_C5.1_H5.1_[+4CCC]_A5.1_F5.1_T5.1 (ssRNA)
RNA: B20 RNA with U28C, A29C, U30C, A32U, C33A, C35U, U36A
B25: Ie_S4_P5E.1_K5.1_C5.1_H5.1_[+4CTT]_A5.1_F5.1_T5.1 (ssRNA)
RNA: B20 RNA with U28C, A29U, A32U, C33A, C35U, U36A
B26: Ie_S4_P4E.1_K4.1_C4.1_H4.1_A4.1_F4.1_[+9TCTC]_T4.1 (ssRNA)
RNA: B20 RNA with C33U, U34C, C35U, U36C
B27: Ie_S4_P5E.1_K5.1_C5.1_H5.1_[+2TCT]_A5.1_F5.1_T5.1 (ssRNA)
RNA: B20 RNA with A27C, A29U, U30A, A32U, C33A, C35U, U36A
B28: Ie_S4_P5E.1_K5.1_C5.1_H5.1_[+4TCC]_A5.1_F5.1_T5.1 (ssRNA)
RNA: B20 RNA with A29C, U30C, A32U, C33A, C35U, U36A
B29: Ie_S4_P4E.1_K4.1_C4.1_H4.1_A4.1_F4.1_[+9TCTCT]_T4.1 (ssRNA)
RNA: UUUGACAACUGAUCGUUCUUUCUUGUAUAUUAUCUCUUUCUUUCUCGAUCAGUUGUCUUU
B30: Ie_S4_P5E.1_K5.1_C5.1_H5.1_[+4TTCC]_A5.1_F5.1_T5.1 (ssRNA)
RNA: B15 RNA with C25G, C26U, C27A, G29U, U30C, A31C
B31: Ie_S4_P5E.1_K5.1_C5.1_H5.1_A5.1_[+5CCCT]_F5.1_T5.1 (ssRNA)
RNA: B15 RNA with C25G, C26U, C27A, G29C, U30C, A31C
B32: Ie_S4_P4E.1_K4.1_C4.1_H4.1_A4.1_F4.1_[+9CCCTT]_T4.1 (ssRNA)
RNA: B29 RNA with U33C, U35C, C36U
B33: Ie_S4_P5E.1_K5.1_C5.1_H5.1_[+4CCCT]_A5.1_F5.1_T5.1 (ssRNA)
RNA: B15 RNA with C25G, C26U, C27A, U28C, G29C, U30C, A31U
B34: Ie_S4_P5E.1_K5.1_C5.1_H5.1_[+3CTCT]_A5.1_F5.1_T5.1 (ssRNA)
RNA: B15 RNA with C25G, C26U, G29C
B35: Ie_S4_P5E.1_K5.1_C5.1_H5.1_[+4CCTC]_A5.1_F5.1_T5.1 (ssRNA)
RNA: B15 RNA with C25G, C26U, C27A, U28C, G29C, A31C
B36: Ie_S4_P5E.1_K5.1_C5.1_H5.1_[+1CCT]_A5.1_F5.1_T5.1 (ssRNA)
RNA: UUUGACAACUGAUCGUUCUUUCUUCCUGUAUUAUUAUUCUUUCUCGAUCAGUUGUCUUU
B37: Ie_S4_P5E.1_K5.1_C5.1_H5.1_[+3TCC]_A5.1_F5.1_T5.1 (ssRNA)
RNA: B36 RNA with C25G, C26U, G28C, U29C
B38: Ie_S4_P5E.1_K5.1_C5.1_H5.1_[+1CTT]_A5.1_F5.1_T5.1 (ssRNA)
RNA: B36 RNA with C26U
B39: Ie_S4_P5E.1_K5.1_C5.1_H5.1_[+3CCC]_A5.1_F5.1_T5.1 (ssRNA)
RNA: B36 RNA with C25G, C26U, U27C, G28C, U29C
B40: Ie_S4_P5E.1_K5.1_C5.1_H5.1_[+3TCT]_A5.1_F5.1_T5.1 (ssRNA)
RNA: B36 RNA with C25G, C26U, G28C
B41: Ie_S4_P5E.1_K5.1_C5.1_H5.1_[+1CTC]_A5.1_F5.1_T5.1 (ssRNA)
RNA: B36 RNA with C26U, U27C
B42: Ie_S4_P5E.1_K5.1_C5.1_H5.1_[+2TCC]_A5.1_F5.1_T5.1 (ssRNA)
RNA: B36 RNA with C25G, C26U, U27C, G28C
B43: Ie_S4_P5E.1_K5.1_C5.1_H5.1_[+3T]_A5.1_F5.1_T5.1 (ssRNA)
RNA: UUUGACAACUGAUCGUUCUUUCUUGUUAUUAUUAUUCUUUCUCGAUCAGUUGUCUUU
B44: Ie_S4_P5E.1_K5.1_C5.1_H5.1_[+3C]_A5.1_F5.1_T5.1 (ssRNA)
RNA: B43 RNA with U27C
B45: Ie_S4_P5E.1_K5.1_C5.1_H5.1_A5.1_[+6C]_F5.1_T5.1 (ssRNA)
RNA: B43 RNA with U27A, A28U, U30C
B46: Ie_S4_P5E.1_K5.1_C5.1_H5.1_[+3CCCTT]_A5.1_F5.1_T5.1 (ssRNA)
RNA: UUUGACAACUGAUCGUUCUUUCUUGUCCCUUAUUAUUAUUCUUUCUCGAUCAGUUGUCUUU
B47: Ie_S4_P5E.1_K5.1_C5.1_H5.1_A5.1_[+5CCCTT]_F5.1_T5.1 (ssRNA)
RNA: B46 RNA with C27A, C28U, U30C, U31C, A32U
B48: Ie_S4_P5E.1_K5.1_C5.1_H5.1_[+4TTCCT]_A5.1_F5.1_T5.1 (ssRNA)
RNA: B46 RNA with C27A, C28U, C29U, U30C, U31C, A32U
B49: Ie_S4_P5E.1_K5.1_C5.1_H5.1_A5.1_[+5CTCTC]_F5.1_T5.1 (ssRNA)
RNA: B46 RNA with C27A, C28U, U31C, A32U, U33C
B50: Ie_S4_P5E.1_K5.1_C5.1_H5.1_A5.1_[+5TCTCT]_F5.1_T5.1 (ssRNA)
RNA: B46 RNA with C27A, C28U, C29U, U30C, A32C
B51: Ie_S4_P5E.1_K5.1_C5.1_H5.1_[+4CCCTT]_A5.1_F5.1_T5.1 (ssRNA)
RNA: B46 RNA with C27A, U30C, A32U

What follows are binders tested against T1, PUF4 RNA-binding domain (assay: Mg; RNA-MaP; 20 mM Na-HEPES pH 7.4, 30 mM KOAc, 0.75 mM MgCl2, 0.1% Tween-20, 5% glycerol, 0.1 mg/mL BSA, 2 mM DTT; 25 C; 0.0125-409.6 nM protein). Conditions: tags: N-His6-TEV cleaved; C-SNAP kept, Cy3B-labelled; label: tethered on chip by stalled RNA polymerase.
Binder B1 has a Kd of 26.3 nM.
With B2 the Kd was 1360 nM.
B3 showed a Kd of 670 nM.
B4 gave a Kd of 107 nM.
B5 was tested, and the Kd was 37 nM.
B6 was tested, and the Kd was 0.42 nM.
B7 showed a Kd of 1.43 nM.
For B8, the Kd was 288 nM.
B9 showed a Kd of 10.9 nM.
B10 showed a Kd of 0.642 nM.
Binder B11 has a Kd of 8.89 nM.
B12 was tested, and the Kd was 1.08 nM.
B13 showed a Kd of 1.52 nM.
Binder B14 has a Kd of 2.68 nM.
Binder B15 has a Kd of 1.21 nM.
B16 showed a Kd of 40.3 nM.
B17 was tested, and the Kd was 44.8 nM.
Work on B18 yielded a Kd of 26.4 nM.
B19 showed a Kd of 863 nM.
B20 was tested, and the Kd was 0.777 nM.
With B21 the Kd was 2.85 nM.
For B22, the Kd was 15.6 nM.
B23 was tested, and the Kd was 2.91 nM.
For B24, the Kd was 3.18 nM.
Binder B25 has a Kd of 1.26 nM.
B26 showed a Kd of 0.36 nM.
B27 gave a Kd of 15.3 nM.
For B28, the Kd was 6.26 nM.
B29 showed a Kd of 0.343 nM.
B30 was tested, and the Kd was 9.55 nM.
B31 showed a Kd of 16 nM.
With B32 the Kd was 0.565 nM.
Binder B33 has a Kd of 6.05 nM.
In the case of B34, the Kd is reported as 56.3 nM.
Work on B35 yielded a Kd of 7.54 nM.
B36 gave a Kd of 1.07 nM.
Work on B37 yielded a Kd of 9.83 nM.
B38 gave a Kd of 1.38 nM.
For B39, the Kd was 27.8 nM.
B40 was tested, and the Kd was 8.87 nM.
With B41 the Kd was 216 nM.
Binder B42 has a Kd of 18.4 nM.
With B43 the Kd was 41.6 nM.
In the case of B44, the Kd is reported as 34.1 nM.
In the case of B45, the Kd is reported as 13.4 nM.
Binder B46 has a Kd of 54.8 nM.
Binder B47 has a Kd of 20.8 nM.
Work on B48 yielded a Kd of 16.5 nM.
For B49, the Kd was 13.3 nM.
Binder B50 has a Kd of 14.2 nM.
Binder B51 has a Kd of 9.87 nM.
